Target: the molecule itself
Assay: crystal structure; McrD at 22 mg/mL crystallised at 4 °C in 0.03 M MgCl2, 0.03 M CaCl2, 0.05 M MES, 0.05 M imidazole pH 6.5, 20% glycerol, 10% PEG 4000, 0.02 M carboxylic acids mix; space group C222(1), two molecules in the asymmetric unit; 1.65 Å; oligomerisation analysis with PISA

B1: Methanomassiliicoccus luminyensis strain B10 McrD (natural protein, UniProt A0AAT8XUI9 1-139, looked up)
chain: MSTDKFEPVPLPEILIFPNRLLSAETTEKLLNRVYDVPHVRQVNISGEGVPAMVGSGPGKGLPVEHEGRKVINVKGREIELQLLVGRVFVEIDDIDVVEKAIEAIDEICQELLPFGYNLEVGRYSKYRPTVTDYKKGKR
notes: McrD of Methanomassiliicoccus luminyensis strain B10, NCBI WP_019176772.1; 139 amino acids; cloned with primers from the start codon to the stop codon; in the crystal residues 1-129/130 are modelled, the C-terminal 10 (monomer A) or 9 (monomer B) residues are disordered; 18 (monomer A) and 9 (monomer B) residues of the plasmid-encoded N-terminal tag are seen in the electron density, so the tag …
- stoichiometry N: 2

Reference: publication PMC11301259, “The crystal structure of methanogen McrD, a methyl‐coenzyme M reductase‐associated protein” (FEBS Open Bio, 2024)
